Measured values reported in publication PMC4415419, “The bZIP transcription factor HY5 interacts with the promoter of the monoterpene synthase gene QH6 in modulating its rhythmic expression”.

Target: T1, GST-HY5 (Arabidopsis thaliana, UniProt O24646 1-168)
T1 sequence: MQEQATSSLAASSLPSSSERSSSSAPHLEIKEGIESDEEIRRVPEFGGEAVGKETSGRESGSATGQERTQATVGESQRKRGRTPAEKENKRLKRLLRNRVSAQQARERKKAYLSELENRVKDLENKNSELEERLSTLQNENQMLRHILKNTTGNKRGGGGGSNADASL
Assay: EMSA; 5 ug protein, 20 fmol probe; shift abolished by unlabeled 52-bp competitor (0.5-4 pmol); LightShift Chemiluminescent EMSA kit (Pierce), 20 uL, 8% native PAGE in 1x TBE; salt, pH and temperature not stated
Settings: protein: recombinant; tags: N-terminal GST (pGEX-4T-1); chain copies: 2; label: biotin; blunt

B1: 391-442 (QH6 promoter G-box probe) (dsDNA)
DNA 1: CCTTTAAGTTGCTCTATTTTGACACGTGGCAAAATAATATCTATCTACCCAC
DNA 2: GTGGGTAGATAGATATTATTTTGCCACGTGTCAAAATAGAGCAACTTAAAGG
binding result: binds
